In patent US20160289304A1 (VIRO DYNAMICS, published 2016):
Where a chain is given by its changes, count along the chain named.

Assays:
[1] = target: T1, hemagglutinin (HA) of A/Puerto Rico/8/1934 (PR8, H1N1) (Influenza A virus A/Puerto Rico/8/1934 …, UniProt P03452 18-565); assay: cell-based or functional assay
[2] = target: T1, hemagglutinin (HA) of A/Puerto …; assay: cell-based or functional assay; remark: listed apart in the source
[3] = target: synthetic peptide #34 […] (Influenza A virus A/Puerto Rico/8/1934 …); assay: peptide ELISA, peptide coated at 10 µg/ml, mAb at 1 µg/ml
[4] = target: synthetic peptide #39 […] (Influenza A virus A/Puerto Rico/8/1934 …); assay: as above

B1: 39-3F2-2A6 (mAb-2A6) (antibody, V domains shown)
VH: DVKLVESGGGLVKPGGSLKLSCAASGFTFSSYTMSWVRQTPEKRLEWVATISSGGIYTYYPDSVKGRFTISRDNAKNTLYLQMNSLKSEDTAMYYCVRSTSYYFDYWGQGTTLTVSS
VL: DIVMTQSPSSLTVTAGEKVTMSCKSSQSLLSDGSQKNYLTWCQQKPGQPPKLLIYWASTRESGVPDRFTGSGSGTDFTLTISSVQAEDLGVYYCQNDHSYPLTFGAGTKLELK
notes: also called HANA 39-3F2-2A6; sample 22b
concentration for complete neutralization of PR8, plaque inhibition assay [1]: 0.1 µg/mL
in ovo neutralization, concentration for complete blocking of PR8 growth [1]: 16 µg/mL
HI Titer to PR8 [2]: 80 reciprocal dilution
binding result [3]: binds

B2: 56-2G9-1B3 (mAb-1B3) (antibody, V domains shown)
VH: EVQLVESGGGLVKPGGSLKLSCAASGFIFSSYVMSWVRQTPEKRLEWVATISSGGTNTYYPDSVKGRFTISRDNAKNTLYLQMSSLRSEDTAIYYCVRSYRYYFDYWGQGTTLTVSS
VL: B1 VL with S31N, D32S, C42F, P49S, T59S, G90A, H98S, S99N
concentration for complete neutralization of PR8, plaque inhibition assay [1]: 0.1 µg/mL
in ovo neutralization, concentration for complete blocking of PR8 growth [1]: 8 µg/mL
HI Titer to PR8 [2]: 40 reciprocal dilution

B3: 39-4D12-2D11 (mAb-2D11) (antibody, V domains shown)
VH: B1 VH with L18P, I56S, V64L, N84S, M93I, Y95H
VL: B1 VL with S22N, S82D, V91I
notes: also called HANA 39-4D12-2D11; sample 28b
concentration for complete neutralization of PR8, plaque inhibition assay [1]: 0.1 µg/mL
in ovo neutralization, concentration for complete blocking of PR8 growth [1]: 4 µg/mL
HI Titer to PR8 [2]: 20 reciprocal dilution
binding result [4]: binds
